Values belong to the binder of their own block, whether it stands above or below them.
Legend:
[1] = biological target: T1, UbcH5B S22R C85K-Ub (stable conjugate) (UniProt P62837 1-147; P0CG48 1-76, S22R | C85K, stably conjugated to Ub (C85K-Ub)); assay: SPR; Biacore T200, CM-5 chip, 25°C; GST-tagged E3 captured on anti-GST (1,000-2,000 RU); analyte in 25 mM Tris-HCl pH 7.6, 150 mM NaCl, 0.1 mg/ml BSA, 1 mM DTT, 0.005% Tween-20; steady-state affinity; GST alone subtracted; conditions: both partners purified
T1 construct: UbcH5B with S22R and C85K; ubiquitin; mimic of UbcH5B~Ub; also called UbcH5B C85K S22R–Ub; source: made from purified Arabidopsis Uba1, UbcH5B C85K S22R and His-GST-Ub; purified (Ni2+ agarose, TEV cleavage, Source 15S, Superdex 75)

[2] = biological target: the molecule itself; assay: crystal structure; XR and UbV.XR mixed 1:1.2; sitting drop, 0.1 M NaHEPES pH 7.5, 1.4 M tri-Na citrate; 1.57 Å

Kd [1]: 12.2 µM
B1: GST-tagged RING domain of XIAP (XR, residues 434-C) (domain or fragment, UniProt P98170 434-497, looked up)
chain: EISTEEQLRRLQEEKLCKICMDRNIAIVFVPCGHLVTCKQCAEAVDKCPMCYTVITFKQKIFMS
notes: XIAP RING domain, residues 434 to the C terminus; also called GST-XR; HisGST-XR; source: E. coli BL21(λDE3) GOLD, purified (glutathione agarose); not shown: His tag, N-terminal, kept

B2: RING domain of XIAP (XR, residues 434-C), tag removed (domain or fragment, UniProt P98170 434-497, looked up)
chain: B1 chain
notes: XIAP RING domain, residues 434 to the C terminus; dimeric RING in the crystal; not shown: His-GST, N-terminal, cleaved
stoichiometry N [2]: 2
